The target of the experiment is T1, human amylin receptor 3 (hAMYR3), hCTR2 co-expressed with human receptor activity modifying protein 3 (hRAMP3) (human, UniProt P30988 25-474; O60896 24-148).
T1 sequence (looked up) 1: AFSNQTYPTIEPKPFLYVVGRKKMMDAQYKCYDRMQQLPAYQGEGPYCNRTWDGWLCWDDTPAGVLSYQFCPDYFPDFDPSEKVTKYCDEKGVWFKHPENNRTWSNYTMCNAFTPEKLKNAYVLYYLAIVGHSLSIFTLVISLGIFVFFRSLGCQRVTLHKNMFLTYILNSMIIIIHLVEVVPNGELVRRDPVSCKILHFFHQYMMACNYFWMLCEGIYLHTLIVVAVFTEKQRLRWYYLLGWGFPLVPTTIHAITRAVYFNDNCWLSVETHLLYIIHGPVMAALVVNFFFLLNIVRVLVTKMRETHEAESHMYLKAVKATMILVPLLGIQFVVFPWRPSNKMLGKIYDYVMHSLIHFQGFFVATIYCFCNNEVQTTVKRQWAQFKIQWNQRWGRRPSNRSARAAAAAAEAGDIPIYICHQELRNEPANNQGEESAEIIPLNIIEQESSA
T1 sequence (looked up) 2: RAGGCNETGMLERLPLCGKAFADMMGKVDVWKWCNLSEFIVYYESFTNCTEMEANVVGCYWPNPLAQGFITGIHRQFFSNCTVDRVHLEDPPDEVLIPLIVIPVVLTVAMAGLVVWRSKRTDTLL
The experiment can be described thus: cell-based or functional assay.

*1 amine or outer side, *2 acyl side, *3 side chain or, on linkers, in order; H or OH if unused. Bridges are numbered along the chain shown (N, C = ends). [ ]: non-standard residue; d: D form. The star is where a group is joined. C20 diacid = O=C(O)CCCCCCCCCCCCCCCCCCC(=O)*; γGlu = O=C(O)[C@H](CCC(=O)[*:2])N[*:1]; Hyp = O=C(O)[C@@H]1C[C@@H](O)CN1; NMeI = CC[C@H](C)[C@H](NC)C(=O)O; Sar = CNCC(=O)O

Results on six molecules are retold here after US20160272693A1 (ZEALAND PHARMA A S, published 2016).

B1: [19CD]-isoGlu-R-C( )-NTAT-C( )-ATERLADFLQRSSF-Gly(Me)-A-Ile(Me)-LSSTEVGSNTP-NH2 (Compd. 66) (peptide)
peptide: {C20 diacid-γGlu}-RCNTATCATERLADFLQRSSF[Sar]A[NMeI]LSSTEVGSNTP-NH2
modifications: disulfide 2-7
SMILES: CC[C@H](C)[C@@H](C(=O)N[C@@H](CC(C)C)C(=O)N[C@@H](CO)C(=O)N[C@@H](CO)C(=O)N[C@H](C(=O)N[C@@H](CCC(=O)O)C(=O)N[C@H](C(=O)NCC(=O)N[C@@H](CO)C(=O)N[C@@H](CC(N)=O)C(=O)N[C@H](C(=O)N1CCC[C@H]1C(N)=O)[C@@H](C)O)C(C)C)[C@@H](C)O)N(C)C(=O)[C@H](C)NC(=O)CN(C)C(=O)[C@H](Cc1ccccc1)NC(=O)[C@H](CO)NC(=O)[C@H](CO)NC(=O)[C@H](CCCNC(=N)N)NC(=O)[C@H](CCC(N)=O)NC(=O)[C@H](CC(C)C)NC(=O)[C@H](Cc1ccccc1)NC(=O)[C@H](CC(=O)O)NC(=O)[C@H](C)NC(=O)[C@H](CC(C)C)NC(=O)[C@H](CCCNC(=N)N)NC(=O)[C@H](CCC(=O)O)NC(=O)[C@@H](NC(=O)[C@H](C)NC(=O)[C@@H]1CSSC[C@H](NC(=O)[C@H](CCCNC(=N)N)NC(=O)CC[C@H](NC(=O)CCCCCCCCCCCCCCCCCCC(=O)O)C(=O)O)C(=O)N[C@@H](CC(N)=O)C(=O)N[C@@H]([C@@H](C)O)C(=O)N[C@@H](C)C(=O)N[C@@H]([C@@H](C)O)C(=O)N1)[C@@H](C)O
On to B1, for which the “hAMYR3 EC50 (nM); cAMP induction” value worked out at 0.3 nM.

B2: [19CD]-isoGlu-R-C( )-NTAT-C( )-ATQRLADFLQRSSF-Gly(Me)-A-Ile(Me)-LSSTEVGSNTP-NH2 (Compd. 65) (peptide)
peptide: {C20 diacid-γGlu}-RCNTATCATQRLADFLQRSSF[Sar]A[NMeI]LSSTEVGSNTP-NH2
modifications: disulfide 2-7
SMILES: CC[C@H](C)[C@@H](C(=O)N[C@@H](CC(C)C)C(=O)N[C@@H](CO)C(=O)N[C@@H](CO)C(=O)N[C@H](C(=O)N[C@@H](CCC(=O)O)C(=O)N[C@H](C(=O)NCC(=O)N[C@@H](CO)C(=O)N[C@@H](CC(N)=O)C(=O)N[C@H](C(=O)N1CCC[C@H]1C(N)=O)[C@@H](C)O)C(C)C)[C@@H](C)O)N(C)C(=O)[C@H](C)NC(=O)CN(C)C(=O)[C@H](Cc1ccccc1)NC(=O)[C@H](CO)NC(=O)[C@H](CO)NC(=O)[C@H](CCCNC(=N)N)NC(=O)[C@H](CCC(N)=O)NC(=O)[C@H](CC(C)C)NC(=O)[C@H](Cc1ccccc1)NC(=O)[C@H](CC(=O)O)NC(=O)[C@H](C)NC(=O)[C@H](CC(C)C)NC(=O)[C@H](CCCNC(=N)N)NC(=O)[C@H](CCC(N)=O)NC(=O)[C@@H](NC(=O)[C@H](C)NC(=O)[C@@H]1CSSC[C@H](NC(=O)[C@H](CCCNC(=N)N)NC(=O)CC[C@H](NC(=O)CCCCCCCCCCCCCCCCCCC(=O)O)C(=O)O)C(=O)N[C@@H](CC(N)=O)C(=O)N[C@@H]([C@@H](C)O)C(=O)N[C@@H](C)C(=O)N[C@@H]([C@@H](C)O)C(=O)N1)[C@@H](C)O
B2: the “hAMYR3 EC50 (nM); cAMP induction” value stood at 0.26 nM.

B3: [19CD]-isoGlu-R-C( )-PTAT-C( )-ATERLADFLQRSSF-Gly(Me)-A-Ile(Me)-LSSTEVGSNTP-NH2 (Compd. 67) (peptide)
peptide: {C20 diacid}-[γGlu]RCPTATCATERLADFLQRSSF[Sar]A[NMeI]LSSTEVGSNTP-NH2
modifications: disulfide 3-8
SMILES: CC[C@H](C)[C@@H](C(=O)N[C@@H](CC(C)C)C(=O)N[C@@H](CO)C(=O)N[C@@H](CO)C(=O)N[C@H](C(=O)N[C@@H](CCC(=O)O)C(=O)N[C@H](C(=O)NCC(=O)N[C@@H](CO)C(=O)N[C@@H](CC(N)=O)C(=O)N[C@H](C(=O)N1CCC[C@H]1C(N)=O)[C@@H](C)O)C(C)C)[C@@H](C)O)N(C)C(=O)[C@H](C)NC(=O)CN(C)C(=O)[C@H](Cc1ccccc1)NC(=O)[C@H](CO)NC(=O)[C@H](CO)NC(=O)[C@H](CCCNC(=N)N)NC(=O)[C@H](CCC(N)=O)NC(=O)[C@H](CC(C)C)NC(=O)[C@H](Cc1ccccc1)NC(=O)[C@H](CC(=O)O)NC(=O)[C@H](C)NC(=O)[C@H](CC(C)C)NC(=O)[C@H](CCCNC(=N)N)NC(=O)[C@H](CCC(=O)O)NC(=O)[C@@H](NC(=O)[C@H](C)NC(=O)[C@@H]1CSSC[C@H](NC(=O)[C@H](CCCNC(=N)N)NC(=O)CC[C@H](NC(=O)CCCCCCCCCCCCCCCCCCC(=O)O)C(=O)O)C(=O)N2CCC[C@H]2C(=O)N[C@@H]([C@@H](C)O)C(=O)N[C@@H](C)C(=O)N[C@@H]([C@@H](C)O)C(=O)N1)[C@@H](C)O
B3: the “hAMYR3 EC50 (nM); cAMP induction” value was 0.65 nM.

B4: [19CD]-isoGlu-R-C( )-PTAT-C( )-ATQRLAHFLQRSSF-Gly(Me)-A-Ile(Me)-LSSTEVGSNT-Hyp-NH2 (Compd. 64) (peptide)
peptide: {C20 diacid}-[γGlu]RCPTATCATQRLAHFLQRSSF[Sar]A[NMeI]LSSTEVGSNT[Hyp]-NH2
modifications: disulfide 3-8
SMILES: CC[C@H](C)[C@@H](C(=O)N[C@@H](CC(C)C)C(=O)N[C@@H](CO)C(=O)N[C@@H](CO)C(=O)N[C@H](C(=O)N[C@@H](CCC(=O)O)C(=O)N[C@H](C(=O)NCC(=O)N[C@@H](CO)C(=O)N[C@@H](CC(N)=O)C(=O)N[C@H](C(=O)N1C[C@H](O)C[C@H]1C(N)=O)[C@@H](C)O)C(C)C)[C@@H](C)O)N(C)C(=O)[C@H](C)NC(=O)CN(C)C(=O)[C@H](Cc1ccccc1)NC(=O)[C@H](CO)NC(=O)[C@H](CO)NC(=O)[C@H](CCCNC(=N)N)NC(=O)[C@H](CCC(N)=O)NC(=O)[C@H](CC(C)C)NC(=O)[C@H](Cc1ccccc1)NC(=O)[C@H](Cc1c[nH]cn1)NC(=O)[C@H](C)NC(=O)[C@H](CC(C)C)NC(=O)[C@H](CCCNC(=N)N)NC(=O)[C@H](CCC(N)=O)NC(=O)[C@@H](NC(=O)[C@H](C)NC(=O)[C@@H]1CSSC[C@H](NC(=O)[C@H](CCCNC(=N)N)NC(=O)CC[C@H](NC(=O)CCCCCCCCCCCCCCCCCCC(=O)O)C(=O)O)C(=O)N2CCC[C@H]2C(=O)N[C@@H]([C@@H](C)O)C(=O)N[C@@H](C)C(=O)N[C@@H]([C@@H](C)O)C(=O)N1)[C@@H](C)O
For B4, the “hAMYR3 EC50 (nM); cAMP induction” value came out at 0.15 nM.

B5: [19CD]-isoGlu-R-C( )-NTAT-C( )-ATERLADFLQRSSF-Gly(Me)-A-Ile(Me)-LSSTEVGSNT-Hyp-NH2 (Compd. 68) (peptide)
peptide: {C20 diacid-γGlu}-RCNTATCATERLADFLQRSSF[Sar]A[NMeI]LSSTEVGSNT[Hyp]-NH2
modifications: disulfide 2-7
SMILES: CC[C@H](C)[C@@H](C(=O)N[C@@H](CC(C)C)C(=O)N[C@@H](CO)C(=O)N[C@@H](CO)C(=O)N[C@H](C(=O)N[C@@H](CCC(=O)O)C(=O)N[C@H](C(=O)NCC(=O)N[C@@H](CO)C(=O)N[C@@H](CC(N)=O)C(=O)N[C@H](C(=O)N1C[C@H](O)C[C@H]1C(N)=O)[C@@H](C)O)C(C)C)[C@@H](C)O)N(C)C(=O)[C@H](C)NC(=O)CN(C)C(=O)[C@H](Cc1ccccc1)NC(=O)[C@H](CO)NC(=O)[C@H](CO)NC(=O)[C@H](CCCNC(=N)N)NC(=O)[C@H](CCC(N)=O)NC(=O)[C@H](CC(C)C)NC(=O)[C@H](Cc1ccccc1)NC(=O)[C@H](CC(=O)O)NC(=O)[C@H](C)NC(=O)[C@H](CC(C)C)NC(=O)[C@H](CCCNC(=N)N)NC(=O)[C@H](CCC(=O)O)NC(=O)[C@@H](NC(=O)[C@H](C)NC(=O)[C@@H]1CSSC[C@H](NC(=O)[C@H](CCCNC(=N)N)NC(=O)CC[C@H](NC(=O)CCCCCCCCCCCCCCCCCCC(=O)O)C(=O)O)C(=O)N[C@@H](CC(N)=O)C(=O)N[C@@H]([C@@H](C)O)C(=O)N[C@@H](C)C(=O)N[C@@H]([C@@H](C)O)C(=O)N1)[C@@H](C)O
For the molecule B5, the “hAMYR3 EC50 (nM); cAMP induction” value was found to be 0.29 nM.

B6: [19CD]-isoGlu-R-C( )-NTAT-C( )-ATQRLAHFLQRSSF-Gly(Me)-A-Ile(Me)-LSSTEVGSST-Hyp-NH2 (Compd. 69) (peptide)
peptide: {C20 diacid}-[γGlu]RCNTATCATQRLAHFLQRSSF[Sar]A[NMeI]LSSTEVGSST[Hyp]-NH2
modifications: disulfide 3-8
SMILES: CC[C@H](C)[C@@H](C(=O)N[C@@H](CC(C)C)C(=O)N[C@@H](CO)C(=O)N[C@@H](CO)C(=O)N[C@H](C(=O)N[C@@H](CCC(=O)O)C(=O)N[C@H](C(=O)NCC(=O)N[C@@H](CO)C(=O)N[C@@H](CO)C(=O)N[C@H](C(=O)N1C[C@H](O)C[C@H]1C(N)=O)[C@@H](C)O)C(C)C)[C@@H](C)O)N(C)C(=O)[C@H](C)NC(=O)CN(C)C(=O)[C@H](Cc1ccccc1)NC(=O)[C@H](CO)NC(=O)[C@H](CO)NC(=O)[C@H](CCCNC(=N)N)NC(=O)[C@H](CCC(N)=O)NC(=O)[C@H](CC(C)C)NC(=O)[C@H](Cc1ccccc1)NC(=O)[C@H](Cc1c[nH]cn1)NC(=O)[C@H](C)NC(=O)[C@H](CC(C)C)NC(=O)[C@H](CCCNC(=N)N)NC(=O)[C@H](CCC(N)=O)NC(=O)[C@@H](NC(=O)[C@H](C)NC(=O)[C@@H]1CSSC[C@H](NC(=O)[C@H](CCCNC(=N)N)NC(=O)CC[C@H](NC(=O)CCCCCCCCCCCCCCCCCCC(=O)O)C(=O)O)C(=O)N[C@@H](CC(N)=O)C(=O)N[C@@H]([C@@H](C)O)C(=O)N[C@@H](C)C(=O)N[C@@H]([C@@H](C)O)C(=O)N1)[C@@H](C)O
As for B6, the “hAMYR3 EC50 (nM); cAMP induction” value was found to be 0.17 nM.
